Reference: patent US20140212888A1 (published 2014)

Legend:
Test in all cases: multimer staining
[1] = target: T1, WT1 (wildtype WT1 peptide) peptide on HLA-A*24:02 (human)
T1 peptide: CMTWNQMNL

[2] = target: T2, WT1 (mutant WT1 peptide: second methionine of the wildtype peptide substituted with tyrosine) peptide on … (human)
T2 peptide: CYTWNQMNL

[3] = target: T3, HIV (human immunodeficiency virus) envelope peptide on HLA-A*24:02 (human)
T3 peptide: RYLRDQQLL

B1: WT1 TCR A12-3/B5-1 (TCR, V domains shown)
Valpha: QKEVEQDPGPLSVPEGAIVSLNCTYSNSAFQYFMWYRQYSRKGPELLMYTYSSGNKEDGRFTAQVDKSSKYISLFIRDSQPSDSATYLCATSNAGGTSYGKLTFGQGTILTVHP
Vbeta: KAGVTQTPRYLIKTRGQQVTLSCSPISGHRSVSWYQQTPGQGLQFLFEYFSETQRNKGNFPGRFSGRQFSNSRSEMNVSTLELGDSALYLCASSYGERERKGETQYFGPGTRLLVL
Does B1 bind [1]?
Result: recognises

Does B1 bind [2]?
Result: recognises

Does B1 bind [3]?
Result: no recognition
